Measurements as given in the supplement of paper PMC9170038.

Each sequence was assayed on K4 kissing-loop RNA reporter (assay: apparent KD of K4 kissing-loop reporter; higher = weaker reporter binding). Conditions: Eterna round: R107; input ligand: theophylline 20 uM.
Description: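 RNA-MaP round R107: designed RNA switches with theophylline, tryptophan, arginine or FMN aptamers are transcribed on-chip within common flanks. They are titrated with a labelled K4 kissing-loop RNA reporter in RNA-MaP buffer (100 mM Tris pH 7.5, 80 mM KCl, 4 mM MgCl2), without ligand or with the indicated ligand. Median apparent KD per design.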
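Also: bound reporter read as fluorescence of individual clusters on recovered sequencing chips by microscopy, with normalized cluster intensities fitted with a binding model.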

Point of comparison: “UGAUUGCCAGUGAUGUUGGCAGUUUCUGAAGGAGCGCGUGAAAACGCAGGUAGGUCGCAGAUUAGUGCCAAUUGAUCGAAAGAUC [KL-XArg-A4]”, “apparent KD of K4 kissing-loop reporter” value 193 nM. Against it:
- UUCCACCGAGAAGGAUAUUAUGCUGGACUUGUUUAAGUGUUAAAUAGUGAUGUUAUUUGAUCGGAAUAAGAAGGUCUCAAGUUGA [theeternabot_sameState_KL_FMN_B_44] — within 1.5-fold, 142 nM
- UUGUUUGGUUGAGAGGUUGGGCGAGAUGAUACCAGUAGAGAAGAGUACCCUUGGCAGCAUAGGAAAGAUAUAGUGAUGUUGUAUA [SSTheophA.Q] — within 1.5-fold, 165 nM
- AAAUGCUUGUAUUUGAACAAUUCCUUUAGGGAGGAUAUUGGUAAUACAAGAAGGCCCUGAUGGGAGUGAUGUUCCCAUAACGCGG [Exclusion FMN A GF16] — 2.1-fold lower, 90.2 nM
- AAUAAAAGAUGUUUAGGAAAGCAAAUGGAAGGAGCGUGCGAAAGCACAGGUAGGUCGCCAGUGAUGUUGGCACCUGAGCAUCAAA [#SwitchBubble 18 #K4Late] — 1.7-fold higher, 336 nM
- AAUUGGGACGAAGGAUAUUGUCGGCCAUGUACGAGGUCCGGAUGUCAUGACUGUUAGUGAUGUUAACAAGAAGGUCGAGGGAGAC [theeternabot_exclusion_KL_FMN_B_25] — 1.6-fold lower, 119 nM
- CUGAGCCUGACGUAAGUCAGGCUCUGCGAGCGAGGACCGGUACGGCCGCCACUCGGUGCAGUGAUGUUGCAUGGCCGCAAGGCCG [#2 Exclusion - Tryptophan A Attempt #19 (HarryS)] — within 1.5-fold, 254 nM
- AUCAUUGAGUGAUGUUCAAUGGGUUUUCCCAAGGAUAUUCGGAGCUGAAGAAGGUGGCCCUCGAUAUCAGUAUCAACCUGAAAGC [theeternabot_exclusion_KL_FMN_A_11] — 2-fold higher, 388 nM

Same assay, conditions: Eterna round: R107; input ligand: tryptophan 2.4 mM

Point of comparison: “UUGAGCCGGACCGAAGUCCGGCUCUGCGAGCGAGGACCGGUACGGCCGCCACUCGGUGCAGUGAUGUUGCAUGGCCGCAAGGCCG [#2 Exclusion - Tryptophan A Attempt #8 (HarryS)]”, “apparent KD of K4 kissing-loop reporter” value 401 nM. Against it:
- GUGCGGCUAGUGAUGUUGGUUGUGUGGGAAGGAGCGCAGAUUCAUGCAGGUAGGUCGCCCACACCUCUGAAAGGAGGCUAAUUCA [KL-SSArg-A16] — within 1.5-fold, 331 nM
- GAUUCUGUUCGAAAGAACGGAAUCACGGAAGGAGCGAGAGAAAUCUCAGGUAGGUCGCCGAAUUUUAGAUAGUGAUGUUAUCAUU [Arginine A K4 1] — 1.8-fold higher, 711 nM
- AGAACUGUCUGAGAUACCAGCUAAGGAGUGAUGUUCCUAAGUCCACGAAAGUGGACUCAUAGCCCUUGGCAGCUCAGACAGUUCA [#24 K4 Theophylline B Same State] — 2.4-fold higher, 963 nM
- UGUGUUUACCUGACUCAGUGAUGUUGAGAAGGAGCGUGCUAAAGCACAGGUAGGUCGCUCAACCUAAAUUCAGGUGAGCACUAAA — 1.6-fold lower, 257 nM
- AGAGUACGAAAGUACUCCUCUACACACUGACGAGGACCGGUACGGCCGCCACUCGAGUUGAGUGAUGUUCGACAGUGUGUAGAGA [Omei KL Tryp A SS C v1] — 2-fold higher, 783 nM
- GGGAAGAAGGCGGCCGCCACUGCAGAAGAGACAGAGAGGGAAGAAGAGGAGUGAUGUUCCAAGAACAGGACCGGGCCAAGAAGGG [whbob_SS_Tryp_B_t29] — 4.3-fold lower, 92.9 nM
- CCAUCGCUAUUCGAUACCAGUCUACGUAGGAAACUACGUCUGCAAAGGAGUGAUGUUCCAGACCCUUGGCAGCGAAUAGUGAUGG [Theophylline B K4 5] — 2.2-fold higher, 900 nM
- AAUGCGCAGGGAAGGAGCGCCGUCCAGUGAUGUUGGAGUUAAAUACCAGUGAUGUUGGUUAGGCAGGUAGGUCGCCCUAAAGCGC [Exclusion Arginine B GF 1] — 4.8-fold lower, 83.8 nM
- GGAGUUACCUGGGAUACCAGUCGGAGGCCCAGAGCUCGGAGUGAUGUUCUGGGAUGUUUCGGCCCUUGGCAGCUCUGGGUCUCCG [#2 Exclusion - Theophylline B Attempt #4 (HarryS)] — within 1.5-fold, 571 nM
- UGAUACCAGACGGCCGCCACUGGGACCGGGAGUGAUGUUCCAAAUAAAAGAAGCUCGGCCGCCACUAGGACCGGGUCUGGUAUCU [TrypBX 21 #DoubleAptamer #SwitchBubble] — 2.2-fold lower, 182 nM
- UGAUAGGACAGAAGGAGCGGAAGUGAUGUUUCCAAAUGGAUAAGGUGUCAAAAGACACCCUUCCAGGUAGGUCGCUGUCCUAUCU [ArgBX 14 #Palindromic #SwitchBubble #StaticStem] — 4-fold lower, 101 nM
- GCAGUGAUGUUGCGAAUCGGCCAUGAUGCAGAGGAUAUCGUGCCUUCGAGAAGGUUGUAUAGAGGAUACGAUACUAUUAAUGACG [Same State FMN A GF 6] — within 1.5-fold, 329 nM
- AGAGUGAUGUUUUUUUGAAGUGAGUAAAGUCGAGGACCGGUACGGCCGCCACUCGAGUGAUGUUAGUGAUGUUGAUGUAGUGAUG [xxzmullin] — 5.3-fold lower, 75.4 nM
- AAACUUGCAGUGAUGUUGCAAGUAGGUGAUACCAGCAUCGAAAGAUGCCCUUGGCAGCACCAACACUGCAAGUAAGUAUCACCAA [(H1)-(H2)-(T1)-(T2)-(H)'-(T)'_Design1] — 3.6-fold lower, 111 nM
- UACUAUAGUGAUGUUAUAGAUAAACCAGAUACCAGUGUGACAUAACACCCUUGGCAGCUGAUAAGGGAACAUAUGAAAACAUAUG [AstroSSTHeAED5.17] — 3.1-fold lower, 128 nM
- AAAGAGUCACUCGAAGCUAUCGAAGAUAGGCGAGGACCGGUACGGCCGCCACUCGGAGUGAUGUUCCGAAGACUGUAAAAUAAAA [MatMod 12 - Jieux - Exclusion - Tryptophan A] — within 1.5-fold, 295 nM
- UGGAGUUGACGAAAAGUCAACUCCUGAGAUACCAGUGACGAAAGUCACCCUUGGCAGCUCACUGGCAGUGAUGUUGCACGAUAAA [KL-SSTheo-A1] — 4-fold lower, 101 nM
- UCACGAGUGAUGUUCGUCGCAAUCACCGAAGGAGCGGGCGAAAGCCCAGGUAGGUCGCGGUAGAAUAAUGAUUUUAUUCGAUUGC [Same State Arginine A GF 26] — within 1.5-fold, 568 nM
- UCUGGUAUAUCUGAUACCAGAGUAUAGUAUCAAUUGCAUAUGGAGUGAUGUUCCAUACAACUCCCUUGGCAGCAGAUCUAUCUCU [Same State Theophylline B GF 24] — 2.1-fold lower, 195 nM
- GUGCGCGGUGCGGCCGCCACUCGGAUGCGAGUGAUGUUCGCGGGACGGACGCAAGUCCGUCAUUCGAGGACCGGGCAUGGCUGCA [#2 Same State - Tryptophan B Attempt #6 (HarryS)] — 2.9-fold lower, 137 nM
- GUGCGCGCGGCGGCCGCCACUCGCAUGAGAGUGAUGUUCUCACCGUGACCGUAAGGUCGCGGUGUGAGGACCGGGCCGGGCUGCG [#2 Same State - Tryptophan B Attempt #24 (HarryS)] — within 1.5-fold, 270 nM
- AAACCCAGUGAUGUUGGGAAUCAGUUGAGGGAGGAUAUUGGUAAUACAAGAAGGCCCGGCUGCGGGUGAUGUUCGCAUUAGGGCC [Exclusion FMN A GF17] — 2.9-fold lower, 140 nM
- UGAUUGCCAGUGAUGUUGGCAGUUUCUGAAGGAGCGCGUGAAAACGCAGGUAGGUCGCAGAUUAGUGCCAAUUGAUCGAAAGAUC [KL-XArg-A4] — 2-fold lower, 205 nM
- UUCCACCGAGAAGGAUAUUAUGCUGGACUUGUUUAAGUGUUAAAUAGUGAUGUUAUUUGAUCGGAAUAAGAAGGUCUCAAGUUGA [theeternabot_sameState_KL_FMN_B_44] — 3.4-fold lower, 119 nM
- UUGUUUGGUUGAGAGGUUGGGCGAGAUGAUACCAGUAGAGAAGAGUACCCUUGGCAGCAUAGGAAAGAUAUAGUGAUGUUGUAUA [SSTheophA.Q] — within 1.5-fold, 309 nM
- AAAUGCUUGUAUUUGAACAAUUCCUUUAGGGAGGAUAUUGGUAAUACAAGAAGGCCCUGAUGGGAGUGAUGUUCCCAUAACGCGG [Exclusion FMN A GF16] — 4.4-fold lower, 91.1 nM
- AAUAAAAGAUGUUUAGGAAAGCAAAUGGAAGGAGCGUGCGAAAGCACAGGUAGGUCGCCAGUGAUGUUGGCACCUGAGCAUCAAA [#SwitchBubble 18 #K4Late] — 1.5-fold lower, 264 nM
- AAUUGGGACGAAGGAUAUUGUCGGCCAUGUACGAGGUCCGGAUGUCAUGACUGUUAGUGAUGUUAACAAGAAGGUCGAGGGAGAC [theeternabot_exclusion_KL_FMN_B_25] — 4.6-fold lower, 86.3 nM
- CUGAGCCUGACGUAAGUCAGGCUCUGCGAGCGAGGACCGGUACGGCCGCCACUCGGUGCAGUGAUGUUGCAUGGCCGCAAGGCCG [#2 Exclusion - Tryptophan A Attempt #19 (HarryS)] — within 1.5-fold, 345 nM
- AUCAUUGAGUGAUGUUCAAUGGGUUUUCCCAAGGAUAUUCGGAGCUGAAGAAGGUGGCCCUCGAUAUCAGUAUCAACCUGAAAGC [theeternabot_exclusion_KL_FMN_A_11] — 1.7-fold lower, 243 nM
